Test results published in patent publication US20110158985A1 (published 2011).
Positions count from the first letter of the chain named. Names may count otherwise. “And” between values parts separate entries of the source, which are not always exact repeats. Identical values can stand only once. Like-named read-outs stand apart in the source and are kept apart here.

Legend:
[1] = target: T1, recombinant C-terminally truncated RSV (A2 strain) F protein (RSV (A2 strain), UniProt P03420 26-524); assay: SPR (BIAcore)
T1 construct: extracellular domain; also called truncated F protein; extracellular domain of the F protein from RSV A2
Target sequence in this assay (P03420 137-524): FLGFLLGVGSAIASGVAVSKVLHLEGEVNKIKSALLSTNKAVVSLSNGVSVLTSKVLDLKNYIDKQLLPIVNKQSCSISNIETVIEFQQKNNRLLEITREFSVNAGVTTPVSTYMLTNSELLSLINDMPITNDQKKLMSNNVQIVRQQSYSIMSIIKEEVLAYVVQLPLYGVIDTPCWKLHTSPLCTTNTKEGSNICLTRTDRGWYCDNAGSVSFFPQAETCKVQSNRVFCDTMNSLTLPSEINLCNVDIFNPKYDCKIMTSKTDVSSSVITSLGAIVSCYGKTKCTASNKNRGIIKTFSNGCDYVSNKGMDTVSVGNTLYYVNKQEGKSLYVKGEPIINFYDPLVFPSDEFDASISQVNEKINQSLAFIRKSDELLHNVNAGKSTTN

[2] = target: T2, F protein of RSV (Long strain) (RSV (Long strain), UniProt P12568 26-574); assay: cell-based or functional assay
[3] = target: T2, F protein of RSV (Long strain); assay: cell-based or functional assay; remark: listed apart in the source
[4] = target: T3, RSV F glycoprotein (NUF4) (respiratory syncytial virus); assay: SPR (BIAcore), mAb vs NUF4 (1:1)
T3 chain 1: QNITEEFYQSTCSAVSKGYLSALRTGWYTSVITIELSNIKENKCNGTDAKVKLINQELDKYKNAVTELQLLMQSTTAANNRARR
T3 chain 2: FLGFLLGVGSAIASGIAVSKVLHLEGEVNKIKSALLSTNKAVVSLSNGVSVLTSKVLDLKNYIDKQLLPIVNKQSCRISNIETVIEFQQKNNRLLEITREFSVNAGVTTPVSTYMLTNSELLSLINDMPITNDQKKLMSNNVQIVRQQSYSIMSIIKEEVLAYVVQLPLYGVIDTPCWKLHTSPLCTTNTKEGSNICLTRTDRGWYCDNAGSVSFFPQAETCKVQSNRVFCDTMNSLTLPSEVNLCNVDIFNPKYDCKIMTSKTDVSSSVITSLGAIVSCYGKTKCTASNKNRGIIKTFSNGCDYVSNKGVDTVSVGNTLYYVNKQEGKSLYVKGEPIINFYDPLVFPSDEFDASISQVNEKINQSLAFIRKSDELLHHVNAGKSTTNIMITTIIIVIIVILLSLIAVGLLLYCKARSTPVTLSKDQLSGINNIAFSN

[5] = target: T3, RSV F glycoprotein (NUF4); assay: SPR (BIAcore), mAb vs NUF4 (2:1)
Bac-F = Bac-F (respiratory syncytial virus); assay: SPR (BIAcore), mAb vs Bac-F (1:1)
[6] = target: T1, recombinant C-terminally truncated RSV …; assay: SPR (BIAcore), IgG over immobilised F
[7] = target: T2, F protein of RSV (Long strain); assay: cell-based or functional assay; remark: listed apart in the source
human FcRn [8] = target: T4, human FcRn (human); assay: SPR (BIAcore 3000), FcRn over immobilised IgG, pH 6.0, one-site fit
T4 construct: also called recombinant human FcRn
T4 sequence (chain, as listed by the source limits assumed, chain 1 of 2): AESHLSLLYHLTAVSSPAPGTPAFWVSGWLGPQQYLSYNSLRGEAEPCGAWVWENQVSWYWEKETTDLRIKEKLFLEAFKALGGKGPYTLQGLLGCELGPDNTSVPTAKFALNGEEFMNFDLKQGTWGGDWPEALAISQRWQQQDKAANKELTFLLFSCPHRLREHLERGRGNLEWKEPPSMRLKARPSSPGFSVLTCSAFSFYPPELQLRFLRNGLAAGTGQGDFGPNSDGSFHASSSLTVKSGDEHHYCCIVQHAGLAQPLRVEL
T4 sequence (P61769 21-119 limits assumed, chain 2 of 2): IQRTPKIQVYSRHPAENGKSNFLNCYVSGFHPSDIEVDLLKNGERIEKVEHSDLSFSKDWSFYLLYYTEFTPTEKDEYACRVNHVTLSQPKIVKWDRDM
Description: (§1) Human and Cynomolgus Monkey FcRn were buffer-exchanged against 50 mM Phosphate Buffered Saline (PBS) pH 6.0 or 7.4 containing 0.05% Tween 20. Dilutions were made in the same buffers. […] FcRn was also flowed over an uncoated cell and the sensorgrams from these blank runs subtracted from those obtained with IgG-coupled chips. Runs were analyzed using the software BIAevaluation 3.1 (Pharmacia). Dissociation constants (Kds) were determined by fitting the binding isotherms to a one-site binding model using GraphPad Prism (GraphPad Software, Inc., CA). Errors were estimated as the mean standard deviation for at least 2 independent determinations.

Cynomolgus Monkey FcRn [9] = target: T5, Cynomolgus Monkey FcRn (Cynomolgus Monkey, UniProt Q8SPV9 24-290; Q8SPW0 21-119); assay: as above
T5 construct: also called Cynomolgus FcRn
T5 sequence (Q8SPV9 24-290 limits assumed, chain 1 of 2): as the sequence (chain, as listed by the source limits assumed, chain 1 of 2) above, with N39D, E44Q, G99S, S189G, S190N, L217M counted along it
T5 sequence (Q8SPW0 21-119 limits assumed, chain 2 of 2): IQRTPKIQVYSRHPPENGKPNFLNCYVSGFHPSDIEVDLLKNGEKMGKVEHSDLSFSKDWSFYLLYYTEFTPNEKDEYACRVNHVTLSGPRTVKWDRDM
Description: as §1

[10] = target: T1, recombinant C-terminally truncated RSV …; assay: SPR (BIAcore), IgG over immobilised F; remark: listed apart in the source
Target sequence in this assay (P03420 137-524): as the sequence (P03420 137-524) above

[11] = target: T3, RSV F glycoprotein (NUF4); assay: ITC, NUF4 titrated into antibody, 35 C
Description: The binding thermodynamics of the antibodies were determined from ITC measurements using a Microcal, Inc. VP Titration Calorimeter. The VP titration calorimeter consists of a matched pair of sample and reference vessels (1.409 ml) enclosed in an adiabatic enclosure and a rotating stirrer-syringe for titrating ligand solutions into the sample vessel. The ITC measurements were performed at 25° C. and 35° C. The sample vessel contained the antibody in the phosphate buffer while the reference vessel contained just the buffer solution. The phosphate buffer solution was saline 67 mM PO₄ at pH 7.4 from HyClone, Inc. Five or ten μl aliquots of the 0.05 to 0.1 mM NUF4 solution were titrated 3 to 4 minutes apart into the antibody sample solution until the binding was saturated as evident by the lack of a heat exchange signal. […] This was attributed to a heat of dilution of the NUF4 titrant and was subtracted from the titrant heats obtained during the titration prior to analysis of the data.
A non-linear, least square minimization software program from Microcal, Inc., Origin 5.0, was used to fit the incremental heat of the ith titration (ΔQ (i)) of the total heat, Qₜ, to the total titrant concentration, Xₜ, according to the following equations (I),

[12] = target: T2, F protein of RSV (Long strain); assay: cell-based or functional assay; remark: listed apart in the source
[13] = target: T2, F protein of RSV (Long strain); assay: cell-based or functional assay; remark: listed apart in the source
human FcRn [14] = target: T4, human FcRn; assay: SPR (BIAcore 3000), FcRn over immobilised IgG1, pH 6.0, Scatchard
Description: (§2) IgG1 variants was monitored by surface plasmon resonance detection using a BIAcore 3000 instrument (Pharmacia Biosensor, Uppsala, Sweden). […] The protein concentrations ranged from 3-5 μg/ml in 10 mM sodium acetate, pH 5.0. The activation period was set for 7 minutes at a flow rate of 10 μl/min and the immobilization period was set to between 10 and 20 minutes at a flow rate of 10 μl/min. […] Human and murine FcRn were buffer exchanged against 50 mM PBS buffer pH 6.0 containing 0.05% Tween 20. Dilutions were made in the same buffer. All binding experiments were performed at 25° C. with concentrations ranging from 120 to 1 μg/ml at a flow rate of 5 to 10 μl/min; data were collected for 25 to 50 minutes and three 1-minute pulses of PBS buffer pH 7.2 were used to regenerate the surfaces. FcRn was also flowed over an uncoated cell and the sensorgrams from these blank runs subtracted from those obtained with IgG1-coupled chips. Runs were analyzed using the software BIAevaluation 3.1 (Pharmacia). Association constants (KAs) were determined from Scatchard analysis by measuring the concentration of free reactants and complex at equilibrium after correction for nonspecific binding.

murine FcRn [15] = target: T6, murine FcRn (mouse, UniProt P01887 21-119); assay: as above
T6 construct: also called mouse FcRn; muFcRn
T6 sequence: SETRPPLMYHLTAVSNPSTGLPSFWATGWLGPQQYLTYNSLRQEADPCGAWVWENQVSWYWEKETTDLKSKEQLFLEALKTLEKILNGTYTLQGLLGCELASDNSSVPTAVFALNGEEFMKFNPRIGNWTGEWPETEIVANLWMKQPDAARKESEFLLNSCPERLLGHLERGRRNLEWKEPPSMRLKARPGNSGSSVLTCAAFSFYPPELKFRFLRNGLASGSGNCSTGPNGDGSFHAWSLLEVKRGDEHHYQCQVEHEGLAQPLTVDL
T6 sequence (b2m): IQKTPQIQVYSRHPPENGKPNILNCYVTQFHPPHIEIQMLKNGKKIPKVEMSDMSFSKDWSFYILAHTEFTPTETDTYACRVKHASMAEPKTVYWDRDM
Description: as §2

[16] = target: T1, recombinant C-terminally truncated RSV …; assay: SPR (BIAcore 3000), F immobilised at low density, 1:1 Langmuir fit
Target sequence in this assay (P03420 137-524): as the sequence (P03420 137-524) above
Description: Purified F protein was covalently coupled to an N-hydroxysuccinimide-N-ethyl-N′-[3-diethylaminopropyl]-carbodiimide (EDC/NHS) activated CM5 sensor chip at a low protein density according to the manufacturer's protocol; unreacted active ester groups were blocked with 1 M ethanolamine. For reference purposes, a blank surface, containing no antigen, was prepared under identical immobilization conditions.
For kinetic measurements, a serial 2-fold dilution series of each mAb from 100 nm-0.2 nm, made in instrument buffer (HBS/Tween-20, BIAcore, Inc.), was injected over the F-protein and reference cell surfaces, which are connected in series. In each analysis, following the dissociation phase, the remaining bound antibody was removed from the sensor chip by passing a brief pulse of 100 mM HCl over the surface. Once an entire data set was collected, the resulting binding curves were globally fitted to a 1:1 Langmuir binding model using BIAevaluation software (BIAcore, Inc., Piscataway, N.J.). This algorithm calculates both the association rate (kₒₙ) and the dissociation rate (koff), from which the apparent equilibrium binding constant, Kd, for each antibody was deduced as the ratio of the two rate constants, koff/kₒₙ.

human FcRn [17] = target: T4, human FcRn; assay: SPR (BIAcore), FcRn over immobilised IgG1, pH 6.0
Description: as §2

murine FcRn [18] = target: T6, murine FcRn; assay: SPR (BIAcore), FcRn over immobilised IgG1, pH 6.0
Description: as §2

murine FcRn [19] = target: T6, murine FcRn; assay: SPR (BIAcore), murine FcRn over immobilised IgG1, Scatchard
Description: Runs were analyzed using the software BIAevaluation 3.1 (Pharmacia). Association constants (KAs) were determined from Scatchard analysis by measuring the concentration of free reactants and complex at equilibrium after correction for nonspecific binding. […] The concentration of free analyte (human or murine FcRn) is equal to the bulk analyte concentration since analyte is constantly replenished during sample injection. The concentration of free ligand on the surface of the sensor chip can be derived from the concentration of the complex and from the total binding capacity of the surface as KA=Req/C(Rₘₐₓ−Req) where C is the free analyte concentration, Req is the steady-state response, and Rₘₐₓ is the total surface binding capacity. Rearranging, the equation reads: Req/C=KA Rₘₐₓ−KA Req.
To estimate apparent KAs, concentrations of FcRn ranging from 120 to 1 μg/ml were used. In all cases, equilibrium (or near-equilibrium) binding levels were reached within 50 minutes. To estimate the increase in RU resulting from the non specific effect of protein on the bulk refractive index, binding of FcRn to an uncoated cell was measured and the sensorgrams from these blank runs subtracted from those obtained with IgG1-coupled chips. The plots were all linear, and apparent KAs were calculated from the relevant slopes. […]

human FcRn [20] = target: T4, human FcRn; assay: SPR (BIAcore 3000), FcRn over immobilised IgG
Description: as §1

Cynomolgus Monkey FcRn [21] = target: T5, Cynomolgus Monkey FcRn; assay: SPR (BIAcore 3000), FcRn over immobilised IgG
Description: as §1

B1: A12a6 IgG (antibody, V domains shown)
VH: QVTLRESGPALVKPTQTLTLTCTFSGFSLSTAGMSVGWIRQPPGKALEWLADIWWDGKKDYNPSLKDRLTISKDTSKNQVVLKVTNMDPADTATYYCARDMIFNFYFDVWGQGTTVTVSS
VL: DIQMTQSPSTLSASVGDRVTITCSASSRVGYMHWYQQKPGKAPKLLIYDTFKLSSGVPSRFSGSGSGTEFTLTISSLQPDDFATYYCFQGSGYPFTFGGGTKVEIKR
B1 was tested, and the “fold improvement in koff upon IgG conversion (against its Fab)” value [1] was 13 fold, the “Mean IC50 (Control)” value [2] was 0.0354 µg/mL and the “Mean IC50 (Curve)” value [2] was 0.0357 µg/mL. For the same binder, the “Microneutralization IC50, IgG” value [3] was 0.0357 µg/ml and 0.24 nM, the Kd [4] was 0.73 nM and the “fold in parentheses (palivizumab = 1)” value [4] was 12 fold. For the same binder, the koff [4] was 0.000291 s⁻¹, the kon [4] was 400000 M⁻¹ s⁻¹ and the Kd [5] was 1.87 nM. For the same binder, the “fold in parentheses (palivizumab = 1)” value [5] was 167 fold, the koff [5] was 0.000408 s⁻¹ and the kon [5] was 218000 M⁻¹ s⁻¹. The Kd (Bac-F) was 0.04 nM, the “fold in parentheses (palivizumab = 1)” value (Bac-F) was 98 fold and the Kd [6] was 0.036 nM. For the same binder, the koff [6] was 1.65e-05 s⁻¹ and the kon [6] was 460000 M⁻¹ s⁻¹.

B2: A4B4L1FR-S28R (MEDI-524) (antibody, human IgG1, kappa)
heavy: not shown
light: DIQMTQSPSTLSASVGDRVTITCSASSRVGYMHWYQQKPGKAPKLLIYDTSKLASGVPSRFSGSGSGTEFTLTISSLQPDDFATYYCFQGSGYPFTFGGGTKVEIKRTVAAPSVFIFPPSDEQLKSGTASVVCLLNNFYPREAKVQWKVDNALQSGNSQESVTEQDSKDSTYSLSSTLTLSKADYEKHKVYACEVTHQGLSSPVTKSFNRGEC
For B2, the “RSV microneutralization, average IC50” value [7] was 0.018 µg/mL, the Kd (human FcRn [8]) was 2250 nM and the Kd (Cynomolgus Monkey FcRn [9]) was 1200 nM.

B3: P11d4 IgG (antibody, V domains shown)
VH: B1 VH with A32P, D60H, F105W
VL: B1 VL with A25P, F51M, K52R, S54A
In the case of B3, the “Mean IC50 (Control)” value [2] is reported as 0.0289 µg/mL, the “Mean IC50 (Curve)” value [2] is reported as 0.0217 µg/mL and the “Microneutralization IC50, IgG” value [3] is reported as 0.0217 µg/ml and 0.14 nM. The Kd [4] was 0.85 nM, the “fold in parentheses (palivizumab = 1)” value [4] was 10 fold and the koff [4] was 0.000766 s⁻¹. The kon [4] was 904000 M⁻¹ s⁻¹, the Kd [5] was 8.55 nM and the “fold in parentheses (palivizumab = 1)” value [5] was 36 fold. For the same binder, the koff [5] was 0.00313 s⁻¹, the kon [5] was 366000 M⁻¹ s⁻¹ and the “fold improvement in kon over palivizumab” value [10] was 4 fold. The Kd (Bac-F) was 0.62 nM, the “fold in parentheses (palivizumab = 1)” value (Bac-F) was 6 fold and the Kd [6] was 0.62 nM. It also gave a koff [6] of 0.000289 s⁻¹ and a kon [6] of 466000 M⁻¹ s⁻¹.

B4: A4B4 IgG (antibody, V domains shown)
VH: B1 VH with G57D, D60H
VL: B1 VL with K52F, S54D
For B4, the “Mean IC50 (Control)” value [2] was 0.0154 µg/mL, the “Mean IC50 (Curve)” value [2] was 0.0171 µg/mL and the “Microneutralization IC50, IgG” value [3] was 0.104 µg/ml and 0.069 nM. For the same binder, the Kd [4] was 0.57 nM, the “fold in parentheses (palivizumab = 1)” value [4] was 15 fold and the koff [4] was 0.000282 s⁻¹. The kon [4] was 496000 M⁻¹ s⁻¹, the Kd [5] was 2 nM and the “fold in parentheses (palivizumab = 1)” value [5] was 156 fold. The koff [5] was 0.000401 s⁻¹, the kon [5] was 203000 M⁻¹ s⁻¹ and the “fold improvement in affinity over palivizumab” value [10] was 125 fold. For the same binder, the “fold improvement in koff over palivizumab” value [10] was 28 fold, the “fold improvement in kon over palivizumab” value [10] was 4 fold and the Kd [6] was 0.027 nM. For the same binder, the koff [6] was 1.51e-05 s⁻¹, the kon [6] was 553000 M⁻¹ s⁻¹ and the Ka [11] was 2.69e+08 M⁻¹. It also gave a Kd [11] of roughly 3.7 nM and a ΔHb [11] of 22.2 kcal/mol.

B5: palivizumab (IgG) (antibody)
heavy: not shown
light: B2 light with S24K, A25C, S26Q, S27L, R28S, V103L
notes: also called SYNAGIS
B5 was tested, and the “Microneutralization IC50” value [7] was 3.6 nM, the “RSV microneutralization, average IC50” value [7] was 0.315 µg/mL and the “IC50” value [12] was 3.57 nM. The “Mean IC50 (Control)” value [2] was 0.535 µg/mL, the “Mean IC50 (Curve)” value [2] was 0.453 µg/mL and the “Microneutralization IC50, IgG” value [13] was 0.453 µg/ml and 3.02 nM. The “Microneutralization IC50, IgG” value [3] was 0.453 µg/ml and 3.02 nM, the Kd (Bac-F) was 3.9 nM and the Kd [6] was 3.39 nM. It also gave a Kd (human FcRn [14]) of 2530 nM, a Kd (murine FcRn [15]) of 269 nM and a Kd [16] of 3.46 nM.

B6: human IgG1 MEDI-493 (palivizumab) I253A (antibody)
heavy: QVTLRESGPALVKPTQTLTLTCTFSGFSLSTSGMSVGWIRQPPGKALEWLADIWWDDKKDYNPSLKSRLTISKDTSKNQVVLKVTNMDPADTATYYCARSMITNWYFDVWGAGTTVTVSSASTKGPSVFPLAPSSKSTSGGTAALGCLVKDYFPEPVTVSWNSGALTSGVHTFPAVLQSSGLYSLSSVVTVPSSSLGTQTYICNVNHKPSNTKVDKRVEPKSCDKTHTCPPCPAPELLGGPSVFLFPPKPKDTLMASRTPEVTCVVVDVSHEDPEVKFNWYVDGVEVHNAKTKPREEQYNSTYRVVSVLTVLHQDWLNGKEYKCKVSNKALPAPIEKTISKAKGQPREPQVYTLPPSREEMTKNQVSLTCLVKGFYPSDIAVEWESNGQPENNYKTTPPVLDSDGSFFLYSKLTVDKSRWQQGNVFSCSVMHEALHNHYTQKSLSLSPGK
light: B2 light with S24K, A25C, S26Q, S27L, R28S, V103L
notes: also called 1253A
B6: no binding (human FcRn [17]); no binding (murine FcRn [18]).

B7: human IgG1 MEDI-493 (palivizumab) M252Y/S254T/T256E (antibody)
heavy: QVTLRESGPALVKPTQTLTLTCTFSGFSLSTSGMSVGWIRQPPGKALEWLADIWWDDKKDYNPSLKSRLTISKDTSKNQVVLKVTNMDPADTATYYCARSMITNWYFDVWGAGTTVTVSSASTKGPSVFPLAPSSKSTSGGTAALGCLVKDYFPEPVTVSWNSGALTSGVHTFPAVLQSSGLYSLSSVVTVPSSSLGTQTYICNVNHKPSNTKVDKRVEPKSCDKTHTCPPCPAPELLGGPSVFLFPPKPKDTLYITREPEVTCVVVDVSHEDPEVKFNWYVDGVEVHNAKTKPREEQYNSTYRVVSVLTVLHQDWLNGKEYKCKVSNKALPAPIEKTISKAKGQPREPQVYTLPPSREEMTKNQVSLTCLVKGFYPSDIAVEWESNGQPENNYKTTPPVLDSDGSFFLYSKLTVDKSRWQQGNVFSCSVMHEALHNHYTQKSLSLSPGK
light: B2 light with S24K, A25C, S26Q, S27L, R28S, V103L
notes: also called IgG1/M252Y/S254T/T256E
B7 was tested, and the Kd (murine FcRn [19]) was 24 nM, the Kd (murine FcRn [15]) was 27 nM and the ΔΔG (murine FcRn [15]) was 1.4 kcal/mol.

B8: MEDI-524-YTE (antibody, human IgG1, kappa)
heavy: B7 heavy with S32A, D60H, S67D, S100D, T103F, W105F, A112Q
light: B2 light
In the case of B8, the “fold affinity increase over MEDI-524” value (human FcRn [20]) is reported as 11 fold, the “fold affinity increase over MEDI-524” value (Cynomolgus Monkey FcRn [21]) is reported as 9 fold and the Kd (human FcRn [8]) is reported as 210 nM. It also gave a Kd (Cynomolgus Monkey FcRn [9]) of 134 nM.
